Measurements taken from US20040052799A1, “Nucleic acid and amino acid sequences relating to Helicobacter pylori for diagnostics and therapeutics” (Astra Aktiebolag, priority 1996, published 2004).

What was measured:
[1] = molecular target: T1, H. pylori KDO-8-P synthase (Helicobacter pylori, UniProt Q9ZN55); test: KDO-8-P synthase Assay 1, PEP utilization at 232 nm; format: biochemical; conditions: room temperature, 0.3 mM Ara5P, 0.3 mM PEP, pH 7.5
T1 construct: histidine tag; made in house
Method: The enzyme reaction was performed in a final volume of […] containing 0.3 mM Ara5P, 0.3 mM PEP and 0.1 M Tris-acetate pH 7.5. Reactions were started with […] of purified enzyme and were followed spectrophotometrically at 232 nm for 15 minutes. As a control, the mixture minus enzyme was measured. No decrease in the absorbance at 232 nm was observed when no enzyme was added. […] An extinction coefficient of 2840 M cm^−1 of PEP, was used to estimate that at room temperature, the activity of the enzyme was 0.7-mole/min/mg protein.

[2] = molecular target: T1, H. pylori KDO-8-P synthase; test: KDO-8-P synthase Assay 2, Pi release, molybdate-malachite green; format: biochemical; parameters: unit not given here; conditions: 25° C., 0.3 mM Ara5P, 0.3 mM PEP, 1.28 ug/ml enzyme
Method: Because of the potential interference of test compounds on the assay at 232 nm, a method was developed to measure the amount of Pi released in the reaction (Lanzatta et al. 1979).
This assay ws performed in a 96 well ELISA place, 50 ul assay mixtures containing 0,1 M Tris-acetate (pH 7.5), 0.3 mM Ara5P and 0.3 mM PEP, and 1.28 ug/ml of KDO-8-P synthase were incubated at 25° C. for different times. The reaction was then quenched with the addition of the molybdate-malachite green reagent. […] Under those conditions, the activity measured was 0.734-moles/min/mg protein, which was similar to the rate that was measured with the 232 nm assay.
When assayed in the presence of 0.02% Brij 35, the reaction proceeded faster. Under those conditions, the activity increased up to 1 mole/min mg protein.

[3] = molecular target: T1, H. pylori KDO-8-P synthase; test: Long term storage stability of KDO-8-P synthase
Method: The long term storage stability of the enzyme was tested over several conditions. […] Enzyme stored in 50% glycerol appeared to have less activity during extended storage at −20° C. (FIG. 9).

B1: KDO-8-P synthase: recombinant H. pylori KDO-8-P synthase, histidine-tagged fusion protein (SEQ ID NO: 6945) (protein, listed as Helicobacter pylori)
chain: MKTSNTKTPKPVLIAGPCVIESLENLRSIAIKLQPLANNERLDFYFKASFDKANRTSLESYRGPGLEKGLEMLQTIKDEFGYKILTDVHESYQASVAAKVADILQIPAFLCRQTDLIVEVSQTNAIVNIKKGQFMNPKDMQYSVLKALKTRDSSIQSPTYETALKNGVWLCERGSSFGYGNLVVDMRSLKIMREFAPVIFDATHSVQMPGGANGKSSGDSSFPPILPRAAAAVGIDGLFAETHIDPKNALSDGANMLKPDELEHLVTDMLKIQNLF
modifications: His tag; misc_feature (B) LOCATION 1...276; hypothetical: YES
With B1 as the molecule, how does the “activity of the enzyme” value [1] read?
Its value is 0.7 mole/min/mg protein.

What about the activity measured [2] of the same molecule?
The activity measured was 0.734.

What about the activity after storage ([3]; 50 mM phosphate pH 8.0 and 1 mM PEP, −20° C., at least three weeks) of the same molecule?
The activity after storage was “no loss of activity”.

What about the activity after storage ([3]; 50% glycerol, extended storage at −20° C., FIG. 9) of the same molecule?
Its activity after storage is “less activity”.
